Target: T1, mouse iRhom2 full length wild type C-terminally tagged with 3 consecutive copies of the T7 epitope (mouse, UniProt Q80WQ6 1-827)
T1 construct: also called miR2-FL-WT-T7; mouse iRhom2 variant
T1 sequence: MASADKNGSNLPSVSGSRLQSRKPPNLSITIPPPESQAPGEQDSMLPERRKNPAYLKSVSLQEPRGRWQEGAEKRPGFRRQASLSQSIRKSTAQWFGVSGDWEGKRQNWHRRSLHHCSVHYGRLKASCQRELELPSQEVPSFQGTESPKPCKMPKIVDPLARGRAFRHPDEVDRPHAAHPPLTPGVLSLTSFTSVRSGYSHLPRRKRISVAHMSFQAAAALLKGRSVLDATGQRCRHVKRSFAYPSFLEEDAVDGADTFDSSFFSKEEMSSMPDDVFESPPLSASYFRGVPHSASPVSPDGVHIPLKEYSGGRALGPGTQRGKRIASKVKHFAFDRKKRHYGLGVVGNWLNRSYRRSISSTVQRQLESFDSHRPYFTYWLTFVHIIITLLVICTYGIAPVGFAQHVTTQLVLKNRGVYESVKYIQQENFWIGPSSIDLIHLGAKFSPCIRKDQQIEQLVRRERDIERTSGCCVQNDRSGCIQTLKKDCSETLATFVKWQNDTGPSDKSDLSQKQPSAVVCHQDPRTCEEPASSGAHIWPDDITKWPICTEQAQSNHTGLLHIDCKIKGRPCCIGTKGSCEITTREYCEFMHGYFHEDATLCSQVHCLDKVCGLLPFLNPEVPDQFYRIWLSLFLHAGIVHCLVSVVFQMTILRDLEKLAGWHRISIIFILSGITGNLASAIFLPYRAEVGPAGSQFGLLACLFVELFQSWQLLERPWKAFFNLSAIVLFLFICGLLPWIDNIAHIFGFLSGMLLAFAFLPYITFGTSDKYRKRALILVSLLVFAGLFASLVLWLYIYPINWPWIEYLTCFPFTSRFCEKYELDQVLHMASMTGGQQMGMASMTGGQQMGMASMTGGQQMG
Assay: FACS on MEF-DKO-miR2-FL-WT-T7 cells
Experimental: In brief, immortalized MEF-DKO-EV control cells, MEF-DKO-hiR2-FL-WT-T7 cells and MEF-DKO-miR2-FL-WT-T7 cells were harvested with 10 mM EDTA in PBS, washed and resuspended in FACS buffer (PBS, 3% FBS, 0.05% sodium azide), and seeded in Nunc U-bottom 96-well plates (Thermo Fisher Scientific, USA) at approximately 3×10⁵ cells per well. To pellet cells and remove supernatants, the plates were centrifuged at 1,500 rpm and 4° C. for 3 minutes. For primary staining, cells were resuspended in 100 μl per well of either FACS buffer alone (controls), mouse monoclonal anti-T7 IgG (Merck Millipore, USA) at 3 μg/ml FACS buffer or the humanized antibodies 16-B-03, 16-B-05, 16-B-07, 23-B-04, 42-B-02 and 42-B-04 of the invention also at 3 μg/ml FACS buffer and incubated on ice for 1 hour. Afterwards, plates were centrifuged at 1,500 rpm and 4° C. for 3 minutes and washed twice with 200 μl per well of FACS buffer. For secondary staining of previous anti T7 staining, cells were spun down and resuspended in 100 μl per well of PE-conjugated goat anti-mouse IgG F(ab′)2 detection fragment (Dianova, Germany) diluted 1:100 in FACS buffer. For secondary staining of previous staining with humanized antibodies of invention, cells were spun down and resuspended in 100 μl per well of PE-conjugated goat anti-human IgG F(ab′)2 detection fragment (Dianova, Germany) diluted 1:100 in FACS buffer. Protected from light, the cell suspensions were incubated on ice for 1 hour. Plates were then centrifuged at 1,500 rpm and 4° C. for 3 minutes and washed three times with 200 μl per well of FACS buffer. Finally, cells were resuspended in 150 μl per well of FACS buffer and analyzed using a BD Accuri™ C6 Plus flow cytometer (Becton Dickinson, Germany).

Row | Binder | binding result
1 | humanized antibody 16-B-07 (antibody, V domains shown, Tested as whole humanized antibody produced in CHO cells and detected with anti-human IgG; the general methods speak of human IgG1/Kappa; also called clone 16-B-07) VH: QVTLRESGPALVKPTQTLTLTCTFSGFSLSTFALGVGWIRQPPGKALEWLAHIWWDEDKYYNPALKSRLTISKDTSKNQVVLTITNMDPVDTATYYCARITTYYYGMDYWGQGTLVTVSS VL: EIVMTQSPDFQSVTPKEKVTITCRASQSIGNHLHWYQQKPDASPKLLIKYASQSISGVPSRFSGSGSGTDFTLTINSLEAEDAATYFCQQSYQWPLTFGQGTKLEIK | no binding (tested: 3 µg/ml)
2 | humanized antibody 16-B-05 (antibody, V domains shown, Tested as whole humanized antibody produced in CHO cells and detected with anti-human IgG; the general methods speak of human IgG1/Kappa; The printed LCVD reads SRESGSG where the printed cDNA encodes SRFSGSG; also called clone 16-B-05) VH: QVTLRESGPALVKPTQTLTLTCTFSGFSLSTFALGVGWIRQPPGKALEWLAHIWWDEDKYYNPALKSRLTISKDTSKNQVVLTITNMDPVDTATYYCARITTYYYGMDYWGQGTLVTVSS VL: EIVMTQSPDFQSVTPKEKVTITCRASQSIGNHLHWYQQKPDASPKLLIKYASQSISGVPSRFSGSGSGTDFTLTINSLEAEDAATYFCQQSYNWPLTFGQGTKLEIK | no binding (tested: 3 µg/ml)
3 | humanized antibody 16-B-03 (antibody, V domains shown, Tested as whole humanized antibody produced in CHO cells and detected with anti-human IgG; the general methods speak of human IgG1/Kappa; also called clone 16-B-03) VH: QVTLRESGPALVKPTQTLTLTCTFSGFSLSTFALGVGWIRQPPGKALEWLAHIWWDDDKYYNPALKSRLTISKDTSKNQVVLTITNMDPVDTATYYCARITTYYYGMDYWGQGTLVTVSS VL: EIVMTQSPDFQSVTPKEKVTITCRASQSIGNHLHWYQQKPDASPKLLIKYASQSISGVPSRFSGSGSGTDFTLTINSLEAEDAATYFCQQSYQWPLTFGQGTKLEIK | no binding (tested: 3 µg/ml)
4 | humanized antibody 42-B-04 (antibody, V domains shown, Tested as whole humanized antibody produced in CHO cells and detected with anti-human IgG; the general methods speak of human IgG1/Kappa; also called clone 42-B-04) VH: QVTLRESGPALVKPTQTLTLTCTFSGFSLSTFGRGVGWIRQPPGKALEWLAHIWWDDEKYYNSALKSRLTISKDTSKNQVVLTITNMDPVDTATYYCARIQNYGSNYWYFDVWGQGTLVTVSS VL: AIQLTQSPSSLSASVGDRVTITCRASSRISYMFWYQQKPGKAPKVLIYDTSNLASGVPSRFSGSGSGTDYTLTISSLQPEDFATYYCQQWNAYPLTFGQGTKLEIK | no binding (tested: 3 µg/ml)
5 | humanized antibody 42-B-02 (antibody, V domains shown, Tested as whole humanized antibody from transient expression of heavy chain/kappa light chain pairs in CHO cells, detected with anti-human IgG; the general methods speak of human IgG1/Kappa; also called clone 42-B-02) VH: QVTLRESGPALVKPTQTLTLTCTFSGFSLSTFGRGVGWIRQPPGKALEWLAHIWWDDEKYYNSALKSRLTISKDTSKNQVVLTITNMDPVDTATYYCARIQNYGSNYWYFDVWGQGTLVTVSS VL: AIQLTQSPSSLSASVGDRVTITCRASSRISYMFWYQQKPGKAPKVLIYDTSNLASGVPSRFSGSGSGTDYTLTISSLQPEDFATYYCQQWNSYPLTFGQGTKLEIK | no binding (tested: 3 µg/ml)
6 | humanized antibody 23-B-04 (antibody, V domains shown, Tested as whole humanized antibody produced in CHO cells and detected with anti-human IgG; the general methods speak of human IgG1/Kappa; also called clone 23-B-04) VH: QVTLRESGPALVKPTQTLTLTCTFSGFSLSTFGMGVGWIRQPPGKALEWLAHIWWDDEKYYNSALKSRLTISKDTSKNQVVLTITNMDPVDTATYYCARISNYGSNYWYFNVWGQGTLVTVSS VL: AIQLTQSPSSLSASVGDRVTITCRASSSVSYMYWYQQKPGKAPKVLIYDTSNLASGVPSRFSGSGSGTDYTLTISSLQPEDFATYYCQQWNAYPLTFGQGTKLEIK | no binding (tested: 3 µg/ml)

— patent US20240166767A1 (SCIRHOM, published 2024)
